# From paper PMC7089426, “C8J_1298, a bifunctional thiol oxidoreductase of Campylobacter jejuni, affects Dsb (disulfide bond) network functioning” (PLoS ONE, 2020)
# Biological target: the molecule itself
# Test: cross-linking; glutaraldehyde (0.0001-0.02% v/v), C8J_1298 at 1.8 mg/ml, room temperature, 20 min, 0.05 M bicine-NaOH pH 8.5, 0.1 mM DTT, 0.4 M NaCl; quenched with ethanolamine-HCl pH 8.0
protein,measurement,value
"C8J_1298, periplasmic dimeric thiol oxidoreductase of Campylobacter jejuni 81116 (recombinant, lacking the signal sequence, C-terminal His-Tag) (enzyme) ASNSEISDFYSKSIKAQFPNATVSVSNRQKVGNTGFESVIVSVELNGQKQENILFTKDSLITPDLIDLKTGISYAQEYEMKKFQEARENFTKNAKAVAQKETMVIALGDKNKPAIYVFSDPECPYCREHLAQIDDELKNYQVNYILTPVHGKSAFEKSALIYKEAKKAKNDKEKIAILNKYYDANIKNYPKVSDAELKEVFSLYEKYRSLGLSATPTIIK",stoichiometry N,2
